What was measured:
Experiment in all cases: co-IP
[1] = molecular target: Cx43-F268A+Y286H-GFP (S2+3) (rat) (UniProt P08050)
[2] = molecular target: Cx43-Y230H+F268A+Y286H-GFP (S1+2+3) (rat) (UniProt P08050)
[3] = molecular target: Cx43-Y230H+ΔY265AY+ΔP283PGYKLV-GFP (S1+2+3) (rat) (UniProt P08050)
[4] = molecular target: Cx43-ΔY265AY+ΔP283PGYKLV-GFP (S2+3) (rat) (UniProt P08050)
[5] = molecular target: untagged Cx43-F268A+Y286H (S2+3) (rat) (UniProt P08050)
[6] = molecular target: untagged Cx43-Y230H+F268A+Y286H (S1+2+3) (rat) (UniProt P08050)
[7] = molecular target: untagged Cx43-Y230H+ΔY265AY+ΔP283PGYKLV (S1+2+3) (rat) (UniProt P08050)
[8] = molecular target: untagged Cx43-ΔY265AY+ΔP283PGYKLV (S2+3) (rat) (UniProt P08050)

Measured: amount coprecipitated, % of wild type, with m16 (% of wild type)

clathrin (from UniProt Q00610 1-1675) (complex)
< 10: all assays above
